The source of these data is the NTF2 design screens of Basanta et al. (2020).

The data set can be described thus: protease stability score; higher = more stable; yeast display proteolysis, trypsin and chymotrypsin.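 Note: relative to predicted unfolded state with 0 unfolded-like and 1 meaning tenfold more protease.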
Turning to “DELERLVEDLVRILLEILLTGDWKILMRLMDPDARFIYGDKQRVGMEEVIKELHRLKEEIRINSIEIKRVEIQGDWVHVDGRSDVEVGDKRRSTEVRYHFHVFNGRMRRINIEVE”, the protease stability score was determined as 1.12. For “DELERRAEEVFRQWLHYWLTGDFESMERLADPNVRIVINGVELIGMEHVAREIVHRIRHWRVRIQIDRIDNQGDKVHSEGKLIIHQGEKNIHHDITIHFDVVNGKIKHLEIRIQ” the value was 2.24.

In turn, “DELERRSRDLVELFITALKTGDEDLFSRLIDPNALTWVGDKEQVGWHTDVKMFEDLGLTNFDFHLRSKEIRIIDGKLHTIINGSININGKETDTEIRITISKINGRWQLSSVFVRLH” had a protease stability score of 0.786. For “DELERVSERAIKIFLHVFKTGDEHMHERMADPNVRVHVDGQDLHGREETVEHMLHFFERIKNVKIDVEDSKAYGDKVIVHSRLHWNGVTQHVELEMRKVNGRWEVTEIIIH” the value was 0.1; for “DELETYSRRMFQLLLHIMETGDEEKWDHLADPNARLDIDGREFHGREIVSEVHSQIRSELGVDHHQITHFRLHTFDGKVEVEMEVIDKFDGRDVRSRIHIIVIKINGKWFLHEMSYDHG”, 1.35. The sequence “DELFKNMHTMAEIFLKLLLTGDEDLIRHYADPNVRLEWIFNGVRFEHVGRESFMEFLHRWLEELRLHDLIVHEVRFQGDKYHMDTRERVRVDGVELDRKTEQMYVVVDGRLHSVHRIIN” registered a protease stability score of 0.678. “DELHEDAEKAWRYRLEILRTGDPDSILELMDPDVRIEQGDKKFHGRELTEKFMKWLMDHARYEFFHLKDMRTYGNKVETDGYVVGNVDGQEHIVHVHVYSLKVNGRWTIKSIEIK” yielded a protease stability score of 1.37.

“DELHEERERASEVARRWVLTGNEEMLVQLADPEVRLHFNGVDFVGRETIHETLRRIHELWGVDRIEVRLKTVHIYDGVVDVHVDLHVGDKEIRDDIHLKKFNGRWEMTTRHVH” yielded a protease stability score of 0.348. Regarding “DELHEEYRKIYNIFRHLFETGDWDTWRKLADPHARFEYGEKVSHGREVASETIDWLLEHLRLEHFKLDHFTVQGNFFISDGTEHISYGDKTHTVKTRIILVRVNGVFHLVRIEFV”, the protease stability score was determined as 1.43. For “DELHEFLERVAERLVRMEHTGNEEELKKLMDPHVRLVVGDKTSVGREELLRFLEELKRKIGWTNFTVHVRRIEVQGDFFNVDMELHVNGRSLHVLIRVQIINGKLESIHWIWI” the value was 2.03; for “DELHELVKRYWDRWIESMLTGDFDANHELVDPHARVDIGDKRFHGRELYELHYKRIDHFHIHEINIRHIEVVDGRVHIDVIMHTFEIVNGVKFSHHFRQIIIIEKVDGRWVVRRIIVK”, 1.01. For “DELHERLEEVLEVRIEAILTGDWHWLSRMLDPDTRLEVGDKTYHGMEKIYEKLHTETRRMGWRMEVEIKDYRFQGDYLNVDGTIHIKIGDKEIQKRSELKIVVVDGRITEFKIEYR” the value was 1.18; for “DELHETVEHAMERMIESSKTGDWRSLTKLMDPNVRMHIDGVDLIGWEIAVRVILEIRIEHVHIHHIDVQGDKMEVDVSVRIHFNGKHEDRQIVLFAEKVDGRWINRSVEIR”, 1; for “DELHHVLEIMLRELITAWRTGDERVLNELFDPHVLIVIGDKYYHGREFVTRWLRHIRIKHSEFHLRRIHIQGDYVHITGEFRIEGEFDGRENTVTHDSKIVTLKIDGRWTFHSIVLE”, 2.16. In the case of “DELHKFAEEFMKIFVHNFFTGDWRTMHELLDPHVRLDFNGVEHIGRENVLKFWEEIRRRYDHFHIEVKRVETQGEKAHSDVHLEFRINGQEEHRKQHWHLDVINGRIHSFFVEVE” it was 2.03; in that of “DELHKHAEHMAKLIVETLETGDEDKIRELADPNVRMEIGDKRTIGREELTKLLRKWLSEWRVHDMHVESVEMQGDYTHLHTSVRGEVNGRHRELDTRIDVLVVNGRLKSLRLEIR”, 1.04. “DELHKLAEDHLEDFSRAIHTGDEDHLHHLIDPDVRYHQGDKNLHGRESWHEILERIDHVESEDVKMHRIERQGNKLIIDGEWHMRFVYNGQEKRVEMNTIVILLKVNGKWVNEAWHIR” came in with a protease stability score of 0.463. For “DELHNLLEHALKIVIELWRTGDWRLIDKMLDPNTLLNFNGKNIHGREEIDRLRKELGIEFFAIEDQDYRRMHIQGDKIELDGDSDIIINGQRRRTHVHLHLEKINGRWVDRRIIFL”, the protease stability score amounted to 0.913. For “DELHRDVTEAIKLILHAERTGNWRLMMDLMDPHVKLTIGDKEVHGMEAVFNELRTELEELGLDRFESHVRLRDFRIYDGRVDFHVELIFDFNGREIRHDTRFIVEKVDGRWFIKHIQYG” the value was 2.13; for “DELIEEARRFHEKLVDNLETGNEEEFEREIDPNTRVDFNGVEIHGWKHFSKMFKEIRFHQVRLHDIRAVGNKVDSDEDVDGNYNGVRVRHRIHVVARKVNGRWLMESVIFR”, 1.24. In the case of “DELIKLAHEFLRIMYDSLRTGDEDRVSELLDPHARLDINGKKRHGRKAILDTYREIWFHDIKIKDVDVIDGVIEIDTRLDLEINGVRFEMKTIIFLTKFNGRWVIEEIRIR” it was 1.21. As to “DELKDIMREVAEIIIRLEHTGDWRVFRKMADPNVRIDIGDFHIIGREEWRHWIEELRERIKNLKVEIRITHIESQGDKVHSDTRLIIRFDGVTEERTQHLHFVIVDGRVTSVRYENR”, the protease stability score turned out to be 0.009.

In turn, “DELKEILLRIIEKMLHALLTGNFEELLKNVDPRTRNDINGVDAVGRENIKRVWEEILRRIDHWEEVRIEDFRVQGDKVHIDGRLIMRVDGRREDTTTHLHIIVFNGRVESIKFEIR” gave a protease stability score of 1.57. “DELKEISDEIVLMFDRAIRTGDEHTMKKLLDPNYLLRVDGVDIVGRERFTEIIRQFDHVDYESHRIRDVSIQGDKIDVDSETDIHFTYNGKRERRTYRVRIIILKINGRWRIHEVHLH” had a protease stability score of 1.77. “DELKKILDEYIEDHLRAVHTGDEDRVKHQIDPHVRIDVNGVELIGMEDWKKFLDILGVDNIQVDRYEIKDYHLVGDKATLHEHRDVKYNGVRSRHNINFVVQKIDGKWYFTEYQTE” had a protease stability score of 0.399.

In the case of “DELKKMLKEMEEFHTDLLETGDFEKIIRNVDPHVRIDVNGQEHHGWHEAVEFIREFIERFKNVKIIIEHVEIQGDKLILHMEFRQGEFHSRLIVYSLKVNGRWILKDMEIR”, the protease stability score worked out at 1.67. The sequence “DELKRDADHAVELLHRVIHTGDEDTFVELIDPHVRLDFNGRELIGWEEVRKLMRDLGWEQIHYEIEDIKVYNGQVEIHSRVNINGRTHQSHYHIEKVNGRWILRHVEYE” had a protease stability score of 1.37. Turning to “DELKRYLEELVRRVLQATLTGDEDHFSHLADPTTRLILEDEDHHVENHGREDVRRFMEEHFRRVDHWHISLRRLHPVGNKMHSTGTLRVTFDGVKVDVEVRNHFVMVDGRIKFWKIEFI”, the protease stability score is 1.23. For “DELKSLSRKATEDIVELIITGDEKMLREYMDPNVRVDINGQEIHGREIFFEYIRHLLEHMGVDHLKLDRMEVRDINGQLYIHFRGTTVFNGRTYDEELIWVIVKIDGRWYIEQIEIRFE”, the protease stability score is 1.3. In the case of “DELKTDFENAIRLYEHATKTGDEHEIRKLLDPHVRVDINGREHHGMEHYSDLLHEFLKRLGADHIQFEFKDSHLQGNKLHLHGIIHVHVGDKTHTIDSSVIYEKVDGRWIISSVWYR” it was 1.01; in that of “DELNEITHKFMHEFLRAELTGDWEELHRMLDPHARYIAHIDGREIHFIGRERVLKFMEEWLRRVKNVRIQINDHRVQGDYNHIDGKLKINGKTHDVHIELVMVDGRNHEIHVFIH”, 1.61.

For “DELNELNKEAFETYHQISETGNETMHSRNADPHVRIDINGVEYHGWEHAERLWKNLGVKHIQFHDIEIQGNKLIITVIVEVNGQETRSEVILLKINGRWLIHSLSFR”, the protease stability score stood at 1.06. Regarding “DELQHELERFLEEESRMLKTGDEKRLLELADPDVRVHIDGVDMVGWEALETMWRILKERLGADHVEDVKIRHVDLQGDKADMDVEFDMIQGDKKHYLRSRLIVTKINGRWLLRYVIIK”, the protease stability score was determined as 1.75. The sequence “DELQKMAKHWIELMIRAQETGDEEELKKYLDPDVRIDVDGRELHGREKADELLKEIRIHEFEIKHMRFQGDKLHLHGTDNQRQGNYEYHVEVTYHLIKINGRWSLREIRVE” yielded a protease stability score of 0.637. For “DELQRDSEEAFELVLRVLRTGDEETMSRLADPHTRINVHQGDKIVEFHGREDFERFMHDLLRKFPNMRIDAERVHTFNGQVVINHRLHVNGQERDLHIFSLKIDGRWHLKHVELKLK” the value was 1.73. With “DELQRDSKQAVKLWSESVLTGDERVLKEMADPDPRVEVGEYSSHGMHEVKRLLREMRIEVEDFKDENVRVYGEKLVVDGILHIRIHINGRDEHIDRRAILIMVKVDGRWYFKSMVYR”, the protease stability score is 0.781.

As for “DELRDEVRRWLTKLIEDHKTGDEKAMMELADPNVKVVIDGKELVGMELYEHFVRYWREHIRLTDLKIHDMRIQGDKVHAETRVEGNFNGKYRVIETRVLIVKINGRWFLKEIEID”, the protease stability score is 2.02. In the case of “DELREDSERAEEWLITASETGNEEDILKLADPNTRIDINGKDLHGRESLEHFIRRYKGVTVRIRHRDIINGKLHLDTELRIDGVTLRTELIITKVNGRWYLEEQIVR”, the protease stability score amounted to 1.07. In the case of “DELREESEHARQLYWRSIFTGDEDHFEKLLDPNARVYVNGKNLHGREDVLRVFHELRFRRLHWHDFDDQGDKLFFITKTVVDFNGVKMEQRTELYLRKVDGRWHVEEIRFE” it was 0.997; in that of “DELREHVEEVMRWFFERIKTGDEENFHKMADPDARLQVGDKNVHGRENVLKEWRRHREEIRIEDMKIRELHVIGNYAYLDIHVDITYNGKRKETRVELRVVVIDGRIEHIEIRIN”, 0.439.

“DELRKEAEEHAQHLLDLFDTGDWDRISELADPNTLVIIDINGVHINNVGWEEIRKLWEITRHHLRIEERRVESSRTFENRVELDVKDHIKVGNKKINLDSHITIDVVNGQMKRVDFQLR” gave a protease stability score of 2.04.

In turn, “DELRKESEDLVRILIEIFHTGDEDVFKRMADPHVRLIAENRIVVGRDLVSRFFRHLLEKYPNVTDHVDVRRIILVGDWLHIDLRIDIEIGDKRHEHDVKIHVRKIDGRWVITEIHVK” yielded a protease stability score of 1.85. In turn, “DELRTHAKKMILILFHHLLTGDEEWLHRFMDPSTRRDVGDKELHGMEQITHDIVKEIFLRGAEIHITIRTFRFQGNYLDANIEIKIIVNGQEIHFEVLIHIVKVDGVWLVRSMRFH” gave a protease stability score of 1.43.

Sequence “DELTDSREHALNLYIHKLETGDWNLHERFLDPNVRVDYDGVDLHGREIYRQWETERLEIAGIKHLELKRKSVQGEKIRIDGIEKFDGKEVKTHVIILKVNGKWILETVIFK” displayed a protease stability score of 0.171. For “DELTEDLKHAMTIFLHMLITGDEHWIHDLLDPNTRLEFEGREFVGREDAREEWRKISEEIRVHHVEMKDIHVFDGVIIVDGRMDGEVNGRRTHLNVFFVFHKVNGKWLMRQHSLR”, the protease stability score is 1.42. For “DELTEELRHLAHLMIVSLLTGDPSVFQRYLDPNTKSVVNGKNIHGMEEFDKIILEELKRVDHLEIELKRIDAFDGVTHIDGKLKLRIGDKTVETRMEVNIFTINGKVKSIEISRQ” the value was 1.33. In the case of “DELTEEVRKFLERLWRATHTGNEKEFWELVDPNVRDDINGRILHGRETVIRIITELGFKVRHNEFRDERVVGEYATVHGNFNVDINGKEHEVDVEIIVEKVNGVWTLKYRHFR” it was 1.54.
